Where no end group is shown, it is not given here. bis‑dPEG6 = hexa-ethylene glycol bifunctional linker (bis-dPEG6 NHS ester)

Data set [1] has as its target soluble HLA-DQ2 heterodimer (purified, thrombin-treated DQ2-ligand fusion protein) (human). Briefly: peptide exchange kinetics (HPSEC, fluorescein-labelled peptide, soluble DQ2). (In general: SEC sorts molecules by how far they enter the pores of the column.)
Data set [2] has the same target. Briefly: peptide exchange kinetics (HPSEC, fluorescein-labelled peptide, soluble DQ2), pH 7.3.
Data set [3] has as its target T1, 33-mer gliadin peptide (non-deamidated, α2-gliadin residues 57-89).
T1 chain: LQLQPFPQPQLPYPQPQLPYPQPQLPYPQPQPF

In data set [4] the target is soluble HLA-DQ2 heterodimer (purified, thrombin-treated DQ2-ligand fusion protein) (human). The experiment in a line: peptide exchange assay (HPSEC, fluorescein-labelled peptide 0.18 µM, soluble DQ2 4.7 µM, 37 C, 45 h), pH 5.5.

As to {5(6)‑carboxyfluorescein}-LQLQPFPQPELPYPQPELPYPQPELPYPQPQPF (not fully specified) [33-mer peptide 1 (deamidated 33-mer from α2-gliadin)], in data set [1], the time to half maximal DQ2 occupancy came out at 8 h. Also, the maximum occupancy in data set [2] is 28%.

B1: human tissue transglutaminase (tTGase) (protein)
chain: AEELVLERCDLELETNGRDHHTADLCREKLVVRRGQPFWLTLHFEGRNYEASVDSLTFSVVTGPAPSQEAGTKARFPLRDAVEEGDWTATVVDQQDCTLSLQLTTPANAPIGLYRLSLEASTGYQGSSFVLGHFILLFNAWCPADAVYLDSEEERQEYVLTQQGFIYQGSAKFIKNIPWNFGQFEDGILDICLILLDVNPKFLKNAGRDCSRRSSPVYVGRVVSGMVNCNDDQGVLLGRWDNNYGDGVSPMSWIGSVDILRRWKNHGCQRVKYGQCWVFAAVACTVLRCLGIPTRVVTNYNSAHDQNSNLLIEYFRNEFGEIQGDKSEMIWNFHCWVESWMTRPDLQPGYEGWQALDPTPQEKSEGTYCCGPVPVRAIKEGDLSTKYDAPFVFAEVNADVVDWIQQDDGSVHKSINRSLIVGLKISTKSVGRDEREDITHTYKYPEGSSEEREAFTRANHLNKLAEKEETGMAMRIRVGQSMNMGSDFDVFAHITNNTAEEYVCRLLLCARTVSYNGILGPECGTKYLLNLNLEPFSEKSVPLCILYEKYRDCLTESNLIKVRALLVEPVINSYLLAERDLYLENPEIKIRILGEPKQKRKLVAEVSLQNPLPVALEGCTFTVEGAGLTEEQKTVEIPDPVEAGEEVKVRMDLLPLHMGLHKLVVNFESDKLKAVKGFRNVIIGPA
In the case of B1, in data set [3], the kcat/KM of deamidation entry was “kcat/KM=440 min-1 mM-1”.

With {5(6)‑carboxyfluorescein}-PQPELPYPQ (not fully specified) [peptide 3 (minimal αII epitope)], the binding maximum (DQ2 bound peptide as a percentage of total peptide) in data set [4] turned out to be 7%.

B2: dimeric peptide 22 (two copies of L11K peptide 17 crosslinked through the Lys side chains by a hexa-ethylene glycol bifunctional linker) (peptide)
peptide: {5‑(and 6-)carboxyfluorescein}-LQLQPFPQPEK(bis‑dPEG6)PYPQPELPY
modifications: also: dimer: two copies crosslinked through Lys11 side chains via hexa-ethylene glycol linker
As to B2, the time to half maximal DQ2 occupancy in data set [1] came out at 2.5 h. In data set [2], this molecule gave a maximum occupancy of 40%.

The record behind these values is patent US20090156490A1.
